In the supplement of paper PMC10724198:
± gives the standard deviation of the averaged measurements.

Columns and labels:
[1] = test system: Saccharomyces cerevisiae; test: protein stability index of tFT-peptide fusion (C-terminal peptide) (PSI (0-1 scale)); higher = more stable (slower turnover); conditions: genetic background: wild type; temperature: 30 C
[2] = test system: Saccharomyces cerevisiae; test: as above
Protocol: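 MPS profiling in S. cerevisiae of the tFT-X12 degron library: putative degron peptides plus stable controls, 12 aa, fused to the C-terminus of a sfGFP-mCherry timer. Cells are FACS-sorted into 8 mCherry/sfGFP bins and deep-sequenced. PSI runs from 0 (unstable) to 1 (stable). Backgrounds are wild type, das1Δ and doa10Δ at 30 °C, and wild type, das1Δ, cdc34-1 and cdc53-1 at 37 °C; 2-3 technical replicates each.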

[3] = genetic background: cdc34-1, temperature: 37 C
[4] = genetic background: cdc53-1, temperature: 37 C
[5] = genetic background: das1 deletion, temperature: 30 C
[6] = genetic background: das1 deletion, temperature: 37 C
[7] = genetic background: doa10 deletion, temperature: 30 C
[8] = genetic background: wild type, temperature: 30 C
[9] = genetic background: wild type, temperature: 37 C
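Note: PSI is a weighted mean of sequencing reads over stability bins, variants kept only with over 10 reads, mCherry proximal and sfGFP distal, peptide attached via GGGS linker.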

Row | Sequence | protein stability index [1] | protein stability index [2, 3] | protein stability index [2, 4] | protein stability index [2, 5] | protein stability index [2, 6] | protein stability index [2, 7] | protein stability index [2, 8] | protein stability index [2, 9]
1 | RYVFAFRRNYFC | 0.223 ± 0.015 | 0.448 ± 0.089 | 0.682 ± 0.0095 | 0.636 ± 0.018 | 0.744 ± 0.0096 | 0.171 ± 0.014 | 0.174 ± 0.026 | 0.299 ± 0.038
2 | RYVVVGACIQVV | 0.37 ± 0.011 | 0.421 ± 0.015 | 0.447 ± 0.0078 | 0.302 ± 0.024 | 0.48 ± 0.0021 | 0.274 ± 0.015 | 0.314 ± 0.012 | 0.4511 ± 0.003
3 | SDAIKITFIIHN | 0.473 ± 0.062 | 0.687 ± 0.043 | 0.632 ± 0.024 | 0.59 ± 0.012 | 0.667 ± 0.016 | 0.425 ± 0.01 | 0.46 ± 0.009 | 0.586 ± 0.0065
4 | SFFFLILFLFRD | 0.385 ± 0.053 | 0.372 ± 0.11 | 0.459 ± 0.04 | 0.315 ± 0.029 | 0.484 ± 0.014 | 0.318 ± 0.019 | 0.299 ± 0.03 | 0.466 ± 0.04
5 | SFLACFVLAFFC | 0.372 ± 0.014 | 0.4055 ± 0.00023 | 0.478 ± 0.018 | 0.346 ± 0.032 | 0.475 ± 0.011 | 0.24 ± 0.0037 | 0.281 ± 0.017 | 0.411 ± 0.022
6 | SFPPLPPLPLPP | 0.571 ± 0.2 | 0.64 ± 0.032 | 0.688 ± 0.0089 | 0.578 ± 0.0094 | 0.6778 ± 0.0031 | 0.594 ± 0.014 | 0.5917 ± 0.0043 | 0.6445 ± 0.0054
7 | SFTRYIFFLMFF | 0.355 ± 0.015 | 0.438 ± 0.051 | 0.475 ± 0.037 | 0.417 ± 0.023 | 0.585 ± 0.021 | 0.4089 ± 0.0013 | 0.325 ± 0.017 | 0.456 ± 0.0069
8 | SGPCSPRNLRRL | 0.281 ± 0.018 | 0.699 ± 0.032 | 0.754 ± 0.012 | 0.621 ± 0.017 | 0.736 ± 0.019 | 0.651 ± 0.015 | 0.647 ± 0.03 | 0.719 ± 0.02
9 | SGPTIRRRLFVH | 0.333 ± 0.0092 | 0.647 ± 0.021 | 0.735 ± 0.02 | 0.621 ± 0.012 | 0.7286 ± 0.0068 | 0.148 ± 0.018 | 0.17 ± 0.043 | 0.347 ± 0.019
